We go through two molecules from PMC4391263, “Alpers disease mutations in human DNA polymerase gamma cause catalytic defects in mitochondrial DNA replication by distinct mechanisms”.

Data set [1] deals with Pol-γA S305R (exo+);Pol-γB accessory subunit (Homo sapiens;Homo sapiens, UniProt P54098;Q9UHN1 26-1239;26-485, S305R|). The data set can be described thus: global fit of pre-steady-state single-nucleotide incorporation kinetics (quench flow, DNA titration); 12.5 mM Mg2+, dATP; 12.5 mM Mg2+, 37 °C; enzyme and DNA preincubated, rapid quench flow; buffer, salt and pH not given in the material. Table 1 WT Kd (9.9 ± 2.1 nM) is asterisked as apparently earlier data and not listed. Conditions: protein: recombinant;recombinant; tags: ;; copies: 1;2; label: 5'-32P primer; 5' overhang 20 nt on template, recessed primer 3' end.

For data set [2], the target named is T1, Pol-γA P1073L (exo+);Pol-γB accessory subunit (Homo sapiens;Homo sapiens, UniProt P54098;Q9UHN1 26-1239;26-485, P1073L|). The data set can be described thus: global fit of processive polymerization time course; 12.5 mM MgCl2; dATP, dCTP, TTP 5 μM each; 12.5 mM Mg2+, 37 °C; enzyme and DNA preincubated, rapid quench flow; buffer, salt and pH not given in the material. Table 1 WT Kd (9.9 ± 2.1 nM) is asterisked as apparently earlier data and not listed. Conditions: protein: recombinant;recombinant; tags: ;; copies: 1;2; label: 5'-32P primer; 5' overhang 20 nt on template, recessed primer 3' end.

The target in data set [3] is T1, Pol-γA P1073L (exo+);Pol-γB accessory …. The data set can be described thus: pre-steady-state single-nucleotide incorporation kinetics; 12.5 mM Mg2+, dATP; 12.5 mM Mg2+, 37 °C; enzyme and DNA preincubated, rapid quench flow; buffer, salt and pH not given in the material. Table 1 WT Kd (9.9 ± 2.1 nM) is asterisked as apparently earlier data and not listed. Conditions: protein: recombinant;recombinant; tags: ;; copies: 1;2; label: 5'-32P primer; 5' overhang 20 nt on template, recessed primer 3' end.

Data set [4] has as its target Pol-γA wild-type (exo+);Pol-γB accessory subunit (Homo sapiens;Homo sapiens, UniProt P54098;Q9UHN1 26-1239;26-485, |). The data set can be described thus: global fit of processive polymerization time course; 12.5 mM MgCl2; dATP, dGTP, TTP 5 μM each; 12.5 mM Mg2+, 37 °C; enzyme and DNA preincubated, rapid quench flow; buffer, salt and pH not given in the material. Table 1 WT Kd (9.9 ± 2.1 nM) is asterisked as apparently earlier data and not listed. Conditions: protein: recombinant;recombinant; tags: ;; copies: 1;2; 5' overhang 48 nt on template, recessed primer 3' end.

T1 sequence (P54098 26-1239 P1073L, chain 1 of 2): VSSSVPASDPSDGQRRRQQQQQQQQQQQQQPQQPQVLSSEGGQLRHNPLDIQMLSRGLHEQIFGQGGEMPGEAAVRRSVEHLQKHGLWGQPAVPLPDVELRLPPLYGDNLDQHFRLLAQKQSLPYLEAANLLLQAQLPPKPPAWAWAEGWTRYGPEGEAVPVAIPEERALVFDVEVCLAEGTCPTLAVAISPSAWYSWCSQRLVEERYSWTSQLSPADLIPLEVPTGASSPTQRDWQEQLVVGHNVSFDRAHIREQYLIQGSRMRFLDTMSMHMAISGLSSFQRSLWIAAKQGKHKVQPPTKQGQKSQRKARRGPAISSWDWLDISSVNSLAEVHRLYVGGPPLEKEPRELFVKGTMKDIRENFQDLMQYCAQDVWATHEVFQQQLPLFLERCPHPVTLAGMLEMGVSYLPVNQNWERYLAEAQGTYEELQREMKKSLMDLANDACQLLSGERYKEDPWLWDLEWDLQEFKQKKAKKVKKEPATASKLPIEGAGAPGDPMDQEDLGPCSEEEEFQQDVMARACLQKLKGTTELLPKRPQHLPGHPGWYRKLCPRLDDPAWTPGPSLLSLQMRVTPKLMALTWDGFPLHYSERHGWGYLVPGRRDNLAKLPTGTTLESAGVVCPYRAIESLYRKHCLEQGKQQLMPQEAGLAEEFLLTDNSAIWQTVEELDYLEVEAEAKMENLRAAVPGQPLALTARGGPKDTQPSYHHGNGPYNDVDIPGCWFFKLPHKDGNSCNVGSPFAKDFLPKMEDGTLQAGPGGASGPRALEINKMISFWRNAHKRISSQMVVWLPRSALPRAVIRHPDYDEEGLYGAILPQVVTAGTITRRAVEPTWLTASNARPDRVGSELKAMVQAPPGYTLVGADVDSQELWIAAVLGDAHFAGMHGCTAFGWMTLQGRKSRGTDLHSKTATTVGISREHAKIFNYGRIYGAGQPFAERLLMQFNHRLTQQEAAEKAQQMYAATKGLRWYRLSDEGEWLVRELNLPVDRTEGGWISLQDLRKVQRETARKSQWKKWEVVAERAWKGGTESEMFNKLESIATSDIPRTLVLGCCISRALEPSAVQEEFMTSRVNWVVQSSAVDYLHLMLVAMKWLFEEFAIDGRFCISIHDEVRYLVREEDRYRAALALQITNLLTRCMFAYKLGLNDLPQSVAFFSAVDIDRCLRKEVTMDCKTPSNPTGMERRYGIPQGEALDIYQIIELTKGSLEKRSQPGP
T1 sequence (Q9UHN1 26-485, chain 2 of 2): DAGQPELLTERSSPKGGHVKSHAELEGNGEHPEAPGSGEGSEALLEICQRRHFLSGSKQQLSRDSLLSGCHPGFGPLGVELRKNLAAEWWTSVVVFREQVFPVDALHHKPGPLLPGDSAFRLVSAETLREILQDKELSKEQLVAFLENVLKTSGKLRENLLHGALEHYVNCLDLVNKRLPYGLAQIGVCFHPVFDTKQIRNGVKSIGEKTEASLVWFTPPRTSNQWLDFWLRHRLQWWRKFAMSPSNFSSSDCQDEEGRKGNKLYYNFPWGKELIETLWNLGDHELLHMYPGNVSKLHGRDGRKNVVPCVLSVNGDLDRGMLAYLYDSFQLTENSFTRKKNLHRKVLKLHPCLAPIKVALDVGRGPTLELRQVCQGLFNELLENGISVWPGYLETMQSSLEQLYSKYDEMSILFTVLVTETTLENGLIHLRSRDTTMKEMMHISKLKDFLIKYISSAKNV
Sequence of Pol-γA wild-type (exo+);Pol-γB accessory subunit (P54098 26-1239, chain 1 of 2): as the sequence (P54098 26-1239 P1073L, chain 1 of 2) above, with L1048P counted along it
Sequence of Pol-γA wild-type (exo+);Pol-γB accessory subunit (Q9UHN1 26-485, chain 2 of 2): as the sequence (Q9UHN1 26-485, chain 2 of 2) above
Sequence of Pol-γA S305R (exo+);Pol-γB accessory subunit (P54098 26-1239 S305R, chain 1 of 2): as the sequence (P54098 26-1239 P1073L, chain 1 of 2) above, with S280R, L1048P counted along it
Sequence of Pol-γA S305R (exo+);Pol-γB accessory subunit (Q9UHN1 26-485, chain 2 of 2): as the sequence (Q9UHN1 26-485, chain 2 of 2) above

B1: 25-mer/45-mer primer-template (dsDNA)
DNA 1: GCCTCGCAGCCGTCCAACCAACTCA
DNA 2: GGACGGCATTGGATCGAGGTTGAGTTGGTTGGACGGCTGCGAGGC
With B1, the Kd worked out at 100 ± 4 nM in data set [1], 15 nM in data set [2] and 10.2 ± 1.2 nM in data set [3].

B2: 25-mer/73-mer primer-template (dsDNA)
DNA 1: GCCTCGCAGCCGTCCAACCAACTCA
DNA 2: CCCCACCTGCAGGCATGCAAGCTTGGCACTGGCCGTCGTTTTACCTCTTGAGTTGGTTGGACGGCTGCGAGGC
As to B2, the Kd in data set [4] was 15 nM.
